According to PMC6555848:
pKd: −log10 of the molar value.

Target: fluorescein-labeled phospho-Tyr peptide derived from the EPO receptor (FAM-GpYLVLDKW)
Assay: fluorescence polarisation; 10 nM FAM-labelled peptide, increasing STAT5B protein; 20 mM HEPES, 50 mM NaCl, 0.1% NP-40 substitute, 10% DMSO; 1 h at room temperature; 1:1 model; pH of the Kd values printed in the text not stated (pH 6.8, 7.25, 7.5 or 7.9 were used)

pKd | Substance
6.21 | STAT5B^N642A (from UniProt P51692 1-787) (natural protein)
6.58 | STAT5B^N642D (from UniProt P51692 1-787) (natural protein)
6.64 | STAT5B^N642Q (from UniProt P51692 1-787) (natural protein)
